Laboratory results published in patent publication US20190322765A1 (Hoffmann-La Roche, published 2019).
Substitutions are numbered along the chain they refer to. Values joined by “and” are separate entries in the source; they are usually repeats but may differ in a detail not shown here. Identical values can stand only once. Values belong to the binder of their own block, whether it stands above or below them.

Legend:
murine FAP-His = molecular target: T1, murine FAP-His (murine, UniProt P97321 27-761); test: SPR, FAP-His captured via anti-His, Fab analyte, 1:1 fit, 25°C
T1 construct: not shown: His tag

human FAP-His [1] = molecular target: T2, human FAP-His (human, UniProt Q12884 27-760); test: as above
T2 construct: also called Hu FAP; His-tagged human FAP; not shown: His tag

cynomolgus FAP-His = cynomolgus FAP-His (cynomolgus); test: as above
Method: The FAP binding activity of the cleaved Fab fragments used in these examples as antigen binding, moieties was determined by surface plasmon resonance (SPR) on a Biacore machine. […] Temperature was 25° C. and HBS-EP was used as buffer. […] Fitting was performed based on a 1:1 binding model, RI=0, Rmax=local (because of capture format).

human FAP-His [2] = molecular target: T2, human FAP-His; test: SPR, His-tagged human FAP captured via anti-His, apparent bivalent affinity (avidity), 25°C
Method: Temperature was 25° C. and HBS-EP was used as buffer. Analyte concentration was 50 nM down to 0.05 nM at a flow rate of 50 μl/min (association: 300 s, dissociation: 900 s, regeneration: 60 s, with 10 mM glycine pH 2). Fitting was performed based on a 1:1 binding model, RI=0, Rmax=local (because of capture format).

[3] = molecular target: FAP on GM05389 fibroblasts; test: FACS on GM05389 fibroblasts, surface-bound construct detected with secondary antibody after the times shown (internalization analysis); concentration not shown
[4] = molecular target: T3, human DPPIV on transfected HEK 293 cells (human, UniProt P27487 1-766); test: FACS on HEK 293-human DPPIV cells, with HEK mock-transfected cells, cells only and sec. antibody as controls; concentration not shown
T3 construct: whole, on cells; also called CD26

[5] = molecular target: T4, human FAP expressed on stably transfected HEK293 cells (human, UniProt Q12884 1-760); test: FACS on HEK 293-human FAP cells, median fluorescence against concentration
T4 construct: whole, on cells
Method: Briefly, 250 000 cells per well were incubated with the indicated concentration of the immunoconjugates in a round-bottom 96-well plate, incubated for 30 min at 4° C., and washed once with PBS/0.1% BSA.

Kd (murine FAP-His): 5000 pM and 5200 pM
Kd (human FAP-His [1]): 300 pM and 310 pM
Kd (cynomolgus FAP-His): 230 pM and 240 pM
B1: 4B9 Fab (Fab, V domains shown)
VH: EVQLLESGGGLVQPGGSLRLSCAASGFTFSSYAMSWVRQAPGKGLEWVSAIIGSGASTYYADSVKGRFTISRDNSKNTLYLQMNSLRAEDTAVYYCAKGWFGGFNYWGQGTLVTVSS
VL: EIVLTQSPGTLSLSPGERATLSCRASQSVTSSYLAWYQQKPGQAPRLLINVGSRRATGIPDRFSGSGSGTDFTLTISRLEPEDFAVYYCQQGIMLPPTFGQGTKVEIK

Kd (human FAP-His [2]): 200 pM
B2: 28H1 IgG (antibody, V domains shown)
VH: EVQLLESGGGLVQPGGSLRLSCAASGFTFSSHAMSWVRQAPGKGLEWVSAIWASGEQYYADSVKGRFTISRDNSKNTLYLQMNSLRAEDTAVYYCAKGWLGNFDYWGQGTLVTVSS
VL: B1 VL with T30S, S31R, N50I, V51G, G52A, R54T, I93Q, M94V, L95I
notes: also called unmodified 28H1 IgG antibody

Kd (human FAP-His [2]): 50 pM
B3: 4G8 IgG (antibody, V domains shown)
VH: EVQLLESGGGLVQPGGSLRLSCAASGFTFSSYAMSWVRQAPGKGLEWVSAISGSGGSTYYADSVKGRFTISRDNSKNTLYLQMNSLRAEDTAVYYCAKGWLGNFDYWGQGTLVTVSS
VL: B1 VL with T30S, S31R, N50I, V51G, G52A, R54T, I93Q, M94V, L95I

Kd (murine FAP-His): 4700 pM
Kd (human FAP-His [1]): 470 pM
Kd (cynomolgus FAP-His): 590 pM and 610 pM
B4: 14B3 Fab (Fab, V domains shown)
VH: B1 VH with I52L, G53A, S57I
VL: EIVLTQSPGTLSLSPGERATLSCRASQSVTSSYLAWYQQKPGQAPRLLINVGSRRATGIPDRFSGSGSGTDFTLTISRLEPEDFAVYYCQQGIMLPPTFGQGTKVEIKR
notes: Cleaved Fab fragment

Kd (murine FAP-His): 1300 pM and 1200 pM
Kd (human FAP-His [1]): 190 pM
Kd (cynomolgus FAP-His): 210 pM and 200 pM
B5: 29B11 Fab (Fab, V domains shown)
VH: B1 VH with A56G, S57I
VL: B4 VL
notes: Cleaved Fab fragment

binding result [3]: binds
binding result [4]: no binding
binding result [5]: binds
B6: 4B9 Fab-IL-2 qm-Fab (other)
chain: EVQLLESGGGLVQPGGSLRLSCAASGFTFSSYAMSWVRQAPGKGLEWVSAIIGSGASTYYADSVKGRFTISRDNSKNTLYLQMNSLRAEDTAVYYCAKGWFGGFNYWGQGTLVTVSSASTKGPSVFPLAPSSKSTSGGTAALGCLVKDYFPEPVTVSWNSGALTSGVHTFPAVLQSSGLYSLSSVVTVPSSSLGTQTYICNVNHKPSNTKVDKKVEPKSCDSGGGGSGGGGSGGGGAPASSSTKKTQLQLEHLLLDLQMILNGINNYKNPKLTRMLTAKFAMPKKATELKHLQCLEEELKPLEEVLNGAQSKNFHLRPRDLISNINVIVLELKGSETTFMCEYADETATIVEFLNRWITFAQSIISTLTSGGGGSGGGGSGGGGEVQLLESGGGLVQPGGSLRLSCAASGFTFSSYAMSWVRQAPGKGLEWVSAIIGSGASTYYADSVKGRFTISRDNSKNTLYLQMNSLRAEDTAVYYCAKGWFGGFNYWGQGTLVTVSSASTKGPSVFPLAPSSKSTSGGTAALGCLVKDYFPEPVTVSWNSGALTSGVHTFPAVLQSSGLYSLSSVVTVPSSSLGTQTYICNVNHKPSNTKVDKKVEPKSCD
light: EIVLTQSPGTLSLSPGERATLSCRASQSVTSSYLAWYQQKPGQAPRLLINVGSRRATGIPDRFSGSGSGTDFTLTISRLEPEDFAVYYCQQGIMLPPTFGQGTKVEIKRTVAAPSVFIFPPSDEQLKSGTASVVCLLNNFYPREAKVQWKVDNALQSGNSQESVTEQDSKDSTYSLSSTLTLSKADYEKHKVYACEVTHQGLSSPVTKSFNRGEC
notes: Fab-IL-2-Fab immunoconjugate against FAP with quadruple mutant IL-2

binding result [3]: binds
binding result [4]: no binding
EC50 (read off the curve) [5]: ~20000 pM
B7: 14B3 Fab-IL-2 qm-Fab (other)
chain: B6 chain with I52L, G53A, S57I, I436L, G437A, S441I
light: B6 light
notes: as for B6

Kd (murine FAP-His): 8900 pM and 9500 pM
Kd (human FAP-His [1]): 6000 pM
Kd (cynomolgus FAP-His): 4700 pM and 5300 pM
B8: 3F2 Fab (Fab, V domains shown)
VH: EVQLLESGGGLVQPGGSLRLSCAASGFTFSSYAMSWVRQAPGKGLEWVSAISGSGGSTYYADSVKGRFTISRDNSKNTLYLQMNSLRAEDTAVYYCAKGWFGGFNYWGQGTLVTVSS
VL: B4 VL

Kd (murine FAP-His): 130 pM and 180 pM
Kd (human FAP-His [1]): 2600 pM
B9: 28H1 Fab (Fab, V domains shown)
VH: B2 VH
VL: B4 VL with T30S, S31R, N50I, V51G, G52A, R54T, I93Q, M94V, L95I
notes: Cleaved Fab fragment
